US20060088908A1 (Pieris, published 2006)

T1: recombinant human cytokine interleukin-8 (Promocell) (human, UniProt P10145 23-99, biotin groups on lysine residues (NHS-SS-Biotin) in the ELISA; digoxigenin groups (DIG-NHS) in the colony screening)
T1 construct: also called IL-8
T1 sequence: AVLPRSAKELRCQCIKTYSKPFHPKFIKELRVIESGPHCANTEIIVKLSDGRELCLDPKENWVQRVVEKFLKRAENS

B1: biotinylated synthetic thrombospondin peptide from the cell binding domain of human Thrombospondin1 (peptide)
peptide: RFYVVMWKXXK
modifications: Aca-Aca (amino caproic acid) after Lys8; C-terminal Lys-Biotin
notes: Immobilised through its C-terminal biotin on avidin (ELISA) or streptavidin chip (SPR)

Legend:
[1] = target: streptavidin of the streptavidin-coated sensor chip SA (BIACORE) (UniProt P22629 37-163, limits assumed); assay: SPR, BIAcore X, streptavidin-coated sensor chip SA
[2] = target: B1; assay: SPR, BIAcore X, steady state, biotinylated peptide on sensor chip SA
Description: The binding affinity of the hNGAL muteins to the thrombospondin peptide SEQ ID NO: 18 was determined by surface plasmon resonance (SPR) using the BIAcore X system (BIACORE). First 35 μl of the biotinylated thrombospondin peptide at a concentration of 1 μg/ml (prepared by mixing 1 μl of a 200 μg/ml peptide solution in DMF with 199 μl HBS buffer containing 150 mM NaCl, 10 mM HEPES pH 7.4, 3 mM EDTA) was immobilized to the surface of one flow channel of a streptavidin-coated sensor chip SA (BIACORE) according to the instructions of the manufacturer, resulting in an amount of ca. 400 response units (RU). Binding curves of the hNGAL muteins were then measured by applying 35 μl of each purified muteins from Example 9 in HBS buffer at concentrations between 500 nM and 25 nM using HBS-EP (HBS containing 0.005% Surfactant P20) as a running buffer and a continuous flowrate of 5 μl/min.
Steady state resonance values were measured at the end of the injection phase for the channel with the immobilized thrombospondin peptide for each protein concentration applied. Only negligible buffer effects were detected in the second channel of the sensor chip, which served as a control. These values were directly plotted against the concentration of the hNGAL mutein. […]

[3] = target: B1; assay: ELISA, apparent KD, biotinylated peptide on avidin-coated plate, anti-strepII-antibody-HRP
Description: For the detection of binding in an ELISA (Enzyme-linked Immunosorbent Assay) the wells of a microtiter plate (Maxisorb, Nunc) were filled each with 50 μl of a 50 μg/ml solution of Avidin (Fluka) in PBS and were incubated over night at room temperature (RT). After washing three times with PBST, 50 μl of a 1 μM solution of the biotinylated thrombospondin peptide SEQ ID NO:18 in PBST were filled into the wells and the peptide was immobilized via complex formation between biotin and the preadsorbed avidin. After incubation for one hour the solution was removed and the wells of the microtiter plate were washed three times with PBST. In order to saturate unspecific binding sites, the wells were filled with 100 μl of 4% w/v BSA in PBST and incubated for one hour at RT, followed by three times washing with PBST.
Then a dilution series of the muteins from Example 9 was prepared, starting from 100 nM concentration, and followed by 1 hour incubation at RT. As a control for unspecific binding to avidin, a similar dilution series of hNGAL and its muteins was applied to wells where the thrombospondin peptide had been omitted. After washing three times with PBST, Anti-strepII-antibody-HRP-conjugate (IBA), diluted 1:8000 with PBST, was applied to the wells. Incubation was performed for 1 hour at RT and followed by washing three times with PBST and twice with PBS. […]

[4] = target: T1, recombinant human cytokine …; assay: ELISA, apparent KD, biotinylated IL-8 on avidin-coated plate, anti-strepII-antibody-HRP
Description: (§1) For the detection of binding in an ELISA experiment two rows (12 wells each) of a 96 microtiter plate (Maxisorb, Nunc) were coated with 50 μl of a 50 μg/ml solution of Avidin (Fluka) in PBS overnight at 4° C. After washing three times with PBST, one row was treated with 50 μl/well of a 1 μM solution of biotinylated IL-8 in PBST, whereas the second row was incubated with PBST as a control. After 1 hour at RT, all wells were washed three times with PBST and unspecific binding sites were saturated with 100 μl of 4% w/v skimmed milk powder in PBST for 1 hour at RT.
(§2) As a control for unspecific binding to avidin, a similar dilution series of the mutein N4 was applied to wells where the IL-8 had been omitted. Complex formation was allowed for 1 hour at RT, followed by three washes with PBST and incubation at RT for 1 hour with anti-strepII-antibody-HRP-conjugate (IBA) diluted 1:8000 in PBST.
(§3) Detection of bound mutein N4 was accomplished using 3,3′,5,5′-tetramethylbenzidine and H₂O₂ as substrates for horseradish-peroxidase. For this purpose, all wells were filled with 100 μl of a ready-to-use HRP-substrate solution (Biochem Immunosystems). The colour development was stopped after a few minutes by adding 100 μl of 0.3 M sulphuric acid. Product formation was measured via endpoint absorption at 450 nm in a SpectraMax 250 photometer (Molecular Devices).

Avidin (Fluka) = Avidin (Fluka) (UniProt P02701 25-152); assay: ELISA control without IL-8: avidin-coated wells only, mutein N4 titrated, anti-strepII-antibody-HRP detection, OD450
Description: as §1, §2, §3

[5] = target: T2, original hNGAL with C-terminal Strep-Tag II (encoded by phNGAL15, purified) (human, UniProt P80188 21-198); assay: ELISA: biotinylated thrombospondin peptide on avidin-coated wells, hNGAL titrated, anti-strepII-antibody-HRP detection, A450
T2 construct: mature
Description: For the detection of binding in an ELISA (Enzyme-linked Immunosorbent Assay) the wells of a microtiter plate (Maxisorb, Nunc) were filled each with 50 μl of a 50 μg/ml solution of Avidin (Fluka) in PBS and were incubated over night at room temperature (RT). After washing three times with PBST, 50 μl of a 1 μM solution of the biotinylated thrombospondin peptide SEQ ID NO:18 in PBST were filled into the wells and the peptide was immobilized via complex formation between biotin and the preadsorbed avidin. After incubation for one hour the solution was removed and the wells of the microtiter plate were washed three times with PBST. In order to saturate unspecific binding sites, the wells were filled with 100 μl of 4% w/v BSA in PBST and incubated for one hour at RT, followed by three times washing with PBST. […]
as §3, with “hNGAL muteins” for “mutein N4”, “purpose,” for “purpose, all wells were filled with”, “Immunosystems) was filled into the wells and the” for “Immunosystems). The”, “via the” for “via”

streptavidin of the streptavidin-coated sensor chip SA (BIACORE), sequence (P22629 37-163 limits assumed): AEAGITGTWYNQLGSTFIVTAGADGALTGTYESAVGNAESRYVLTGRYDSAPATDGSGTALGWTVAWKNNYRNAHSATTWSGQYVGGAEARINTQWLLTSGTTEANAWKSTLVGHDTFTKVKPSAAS
Avidin (Fluka), sequence (P02701 25-152 limits assumed): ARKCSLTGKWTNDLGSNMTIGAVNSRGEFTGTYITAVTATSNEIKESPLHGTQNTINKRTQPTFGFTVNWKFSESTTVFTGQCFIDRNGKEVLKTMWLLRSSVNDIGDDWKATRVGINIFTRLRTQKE

| Binder | binding result [1] | Kd [2] [nM] | Kd [3] [nM] | Kd [4] [nM] | binding result (Avidin (Fluka)) | binding result [5] |
| --- | --- | --- | --- | --- | --- | --- |
| hNGAL mutein RFY-C with C-terminal Strep-Tag II (phNGAL15 derivative, purified) (designed binder, not shown: small tags and cut ends) QDSTSDLIPAPPLSKVPLQQNFQDNQFQGKWYLVGLAGNGIHRLDNVPPNMYATIYELKEDKSYNVTSVDFLMKKCPYFIRTFVPGSQPGEFTLGNIKSYPFLTSFLVRVVSTNYNQHAMVFFKNVPRNYEEFKITIYGRTKELPSELKENFIRFSKSLGLPENHIVFPVPIDQCIDG | no binding | 106 | 4.6 |  |  |  |
| hNGAL mutein N4 with C-terminal Strep-Tag II (phNGAL15 derivative, purified) (designed binder, not shown: small tags and cut ends) QDSTSDLIPAPPLSKVPLQQNFQDNQFQGKWYLVGLAGNDIYRADSLPGLMYATIYELKEDKSYNVTSVVFYDKKCVYSIRTFVPGSQPGEFTLGNIKSYEAVTSFLVRVVSTNYNQHAMVFFKDVRPNSEEFKITIYGRTKELPSELKENFIRFSKSLGLPENHIVFPVPIDQCIDG |  |  |  | 300 | no binding (tested: 1000 nM) |  |
| hNGAL mutein RFY-E with C-terminal Strep-Tag II (phNGAL15 derivative, purified) (designed binder, not shown: small tags and cut ends) QDSTSDLIPAPPLSKVPLQQNFQDNQFQGKWYLVGLAGNGITRVDTLPSRMYATIYELKEDKSYNVTSVPFMGKKCKYKIRTFVPGSQPGEFTLGNIKSYMSNTSFLVRVVSTNYNQHAMVFFKQVHKNPESFKITIYGRTKELPSELKENFIRFSKSLGLPENHIVFPVPIDQCIDG | no binding | 107 | 8.2 |  |  |  |
| B1 |  |  |  |  |  | no binding (tested: 200 nM) |
